From article PMC11381232, “Efficient expression and purification of rat CRP in Pichia pastoris” (Frontiers in Immunology, 2024)

How the values were obtained:
[1] = target: the molecule itself; assay: negative-stain electron microscopy; CRP diluted to 0.15-0.3 mg/mL in 20 mM Tris pH 6.8, 150 mM NaCl, 2 mM CaCl2, 1-2 h at 18°C, 1% uranyl acetate; self-association, pentamer
[2] = target: the molecule itself; assay: SDS-PAGE and Western blot, non-reduced against reduced; yeast-secreted rCRP-6×His without or with 20 mM DTT, anti-His detection; disulfide-linked dimer of subunits

B1: rat C-reactive protein purified from rat serum (natural protein, UniProt P48199 20-230, looked up)
chain: HEDMSKQAFVFPGVSATAYVSLEAESKKPLEAFTVCLYAHADVSRSFSIFSYATKTSFNEILLFWTRGQGFSIAVGGPEILFSASEIPEVPTHICATWESATGIVELWLDGKPRVRKSLQKGYIVGTNASIILGQEQDSYGGGFDANQSLVGDIGDVNMWDFVLSPEQINAVYVGRVFSPNVLNWRALKYETHGDVFIKPQLWPLTDCCES
notes: C-reactive protein, rat, endogenous protein from serum; Homopentamer by negative-stain EM and SEC; also called rCRP; rat CRP; source: purified from serum of turpentine-injected Wistar rats (p-Aminophenyl Phosphoryl Choline Agarose, DEAE, SEC)
B1 was tested, and the “stoichiometry N” value [1] was 5.

B2: recombinant rat CRP with N-terminal Strep-tag II, secreted from E. coli BL21 (DE3) (natural protein, UniProt P48199 20-230, looked up)
chain: B1 chain
notes: C-reactive protein, rat, wild type, cDNA by NM_017096.3; so no native signal peptide; A bacterial signal peptide stood before the tag for secretion (text: alkaline phosphatase, ALP); also called rCRP; rCRPwt-pET42c
B2 was tested, and the “stoichiometry N” value [1] was 5.

B3: recombinant rat CRP with C-terminal 6×His tag, secreted from Pichia pastoris GS115 (natural protein, UniProt P48199 20-230, looked up)
chain: B1 chain
notes: C-reactive protein, rat, wild type; the reverse primer ends at ...DCCES followed by GA and six histidines; Secreted by the S. cerevisiae alpha-factor signal of pPIC9K; By the reverse primer a Gly-Ala stands between CRP and the His6 tag; also called rCRP; rCRP-6×His fusion protein; source: P. pastoris GS115, secreted into the culture medium, purified (Ni2+-NTA, p-Aminophenyl Phosphoryl Choline …)
In the case of B3, the “stoichiometry N” value [2] is reported as 2 and the “stoichiometry N” value [1] is reported as 5.
